From patent publication US20210054049A1 (MERUS N V, published 2021) come the findings set out here.

The labels stand for the following.
B1: PB27538p43 (bispecific antibody)
heavy (part 1 of 2) 1: EVQLVETGGGVVQPGRSLRLSCAASGFTFSQYAMHWVRQAPGKGLEWVAIISHDERNKYYVDSGMGRFTISRDNSKNTLFLQMNSLRSEDTAVYYCARDMRKGGYYYGFDVWGQGTTVTVSSASTKGPSVFPLAPSSKSTSGGTAALGCLVKDYFPEPVTVSWNSGALTSGVHTFPAVLQSSGLYSLSSVVTVPSSSLGTQTYICNVNHKPSNTKVDK
heavy (part 2 of 2) 1: not shown
heavy (part 1 of 2) 2: not shown
heavy (part 2 of 2) 2: not shown
light: not shown
notes: also called PB27538p44; PB27538p33
B2: PB27538p52 (bispecific antibody)
heavy (part 1 of 2) 1: EVQLVETGGGVVQPGRSLRLSCAASGFTFSQYAMHWVRQAPGKGLEWVAIISHDERNKYYVDSGMGRFTISRDNSKNTLFLQMNSLRSEDTAVYYCARDMRKGGYYYGFDVWGQGTTVTVSSASTKGPSVFPLAPSSKSTSGGTAALGCLVKDYFPEPVTVSWNSGALTSGVHTFPAVLQSSGLYSLSSVVTVPSSSLGTQTYICNVNHKPSNTKVDK
heavy (part 2 of 2) 1: not shown
heavy (part 1 of 2) 2: not shown
heavy (part 2 of 2) 2: not shown
light: not shown
notes: also called PB27538p42; MG1516C3209 x MG3462C3221
B3: PB27538p51 (bispecific antibody)
heavy (part 1 of 2) 1: EVQLVETGGGVVQPGRSLRLSCAASGFTFSQYAMHWVRQAPGKGLEWVAIISHDERNKYYVDSGMGRFTISRDNSKNTLFLQMNSLRSEDTAVYYCARDMRKGGYYYGFDVWGQGTTVTVSSASTKGPSVFPLAPSSKSTSGGTAALGCLVKDYFPEPVTVSWNSGALTSGVHTFPAVLQSSGLYSLSSVVTVPSSSLGTQTYICNVNHKPSNTKVDK
heavy (part 2 of 2) 1: not shown
heavy (part 1 of 2) 2: not shown
heavy (part 2 of 2) 2: not shown
light: not shown
notes: also called PB27538p41; MG1516C3209 x MG3462C3219
B4: PB27538p50 (bispecific antibody)
heavy (part 1 of 2) 1: EVQLVETGGGVVQPGRSLRLSCAASGFTFSQYAMHWVRQAPGKGLEWVAIISHDERNKYYVDSGMGRFTISRDNSKNTLFLQMNSLRSEDTAVYYCARDMRKGGYYYGFDVWGQGTTVTVSSASTKGPSVFPLAPSSKSTSGGTAALGCLVKDYFPEPVTVSWNSGALTSGVHTFPAVLQSSGLYSLSSVVTVPSSSLGTQTYICNVNHKPSNTKVDK
heavy (part 2 of 2) 1: not shown
heavy (part 1 of 2) 2: not shown
heavy (part 2 of 2) 2: not shown
light: not shown
notes: also called PB27538p40; MG1516C3209 x MG3462C3218
B5: PB27538p49 (bispecific antibody)
heavy (part 1 of 2) 1: EVQLVETGGGVVQPGRSLRLSCAASGFTFSQYAMHWVRQAPGKGLEWVAIISHDERNKYYVDSGMGRFTISRDNSKNTLFLQMNSLRSEDTAVYYCARDMRKGGYYYGFDVWGQGTTVTVSSASTKGPSVFPLAPSSKSTSGGTAALGCLVKDYFPEPVTVSWNSGALTSGVHTFPAVLQSSGLYSLSSVVTVPSSSLGTQTYICNVNHKPSNTKVDK
heavy (part 2 of 2) 1: not shown
heavy (part 1 of 2) 2: not shown
heavy (part 2 of 2) 2: not shown
light: not shown
notes: also called PB27538p39; MG1516C3209 x MG3462C3217
B6: PB27538p45 (bispecific antibody)
heavy (part 1 of 2) 1: EVQLVETGGGVVQPGRSLRLSCAASGFTFSQYAMHWVRQAPGKGLEWVAIISHDERNKYYVDSGMGRFTISRDNSKNTLFLQMNSLRSEDTAVYYCARDMRKGGYYYGFDVWGQGTTVTVSSASTKGPSVFPLAPSSKSTSGGTAALGCLVKDYFPEPVTVSWNSGALTSGVHTFPAVLQSSGLYSLSSVVTVPSSSLGTQTYICNVNHKPSNTKVDK
heavy (part 2 of 2) 1: not shown
heavy (part 1 of 2) 2: not shown
heavy (part 2 of 2) 2: not shown
light: not shown
notes: also called PB27538p35; MG1516C3210 x MG3462C3215
B7: PB27538p48 (bispecific antibody)
heavy (part 1 of 2) 1: EVQLVETGGGVVQPGRSLRLSCAASGFTFSQYAMHWVRQAPGKGLEWVAIISHDERNKYYVDSGMGRFTISRDNSKNTLFLQMNSLRSEDTAVYYCARDMRKGGYYYGFDVWGQGTTVTVSSASTKGPSVFPLAPSSKSTSGGTAALGCLVKDYFPEPVTVSWNSGALTSGVHTFPAVLQSSGLYSLSSVVTVPSSSLGTQTYICNVNHKPSNTKVDK
heavy (part 2 of 2) 1: not shown
heavy (part 1 of 2) 2: not shown
heavy (part 2 of 2) 2: not shown
light: not shown
notes: also called PB27538p38; MG1516C3209 x MG3462C3216
B8: PB27538p46 (bispecific antibody)
heavy (part 1 of 2) 1: EVQLVETGGGVVQPGRSLRLSCAASGFTFSQYAMHWVRQAPGKGLEWVAIISHDERNKYYVDSGMGRFTISRDNSKNTLFLQMNSLRSEDTAVYYCARDMRKGGYYYGFDVWGQGTTVTVSSASTKGPSVFPLAPSSKSTSGGTAALGCLVKDYFPEPVTVSWNSGALTSGVHTFPAVLQSSGLYSLSSVVTVPSSSLGTQTYICNVNHKPSNTKVDK
heavy (part 2 of 2) 1: not shown
heavy (part 1 of 2) 2: not shown
heavy (part 2 of 2) 2: not shown
light: not shown
notes: also called PB27538p36; MG1516C3211 x MG3462C3215

In this assay the target is c-MET (UniProt P08581 25-932). Kind of assay: ELISA on c-MET coated plates. In general terms: ELISA stands for enzyme-linked immunosorbent assay.
Sequence of c-MET (P08581 25-932 limits assumed): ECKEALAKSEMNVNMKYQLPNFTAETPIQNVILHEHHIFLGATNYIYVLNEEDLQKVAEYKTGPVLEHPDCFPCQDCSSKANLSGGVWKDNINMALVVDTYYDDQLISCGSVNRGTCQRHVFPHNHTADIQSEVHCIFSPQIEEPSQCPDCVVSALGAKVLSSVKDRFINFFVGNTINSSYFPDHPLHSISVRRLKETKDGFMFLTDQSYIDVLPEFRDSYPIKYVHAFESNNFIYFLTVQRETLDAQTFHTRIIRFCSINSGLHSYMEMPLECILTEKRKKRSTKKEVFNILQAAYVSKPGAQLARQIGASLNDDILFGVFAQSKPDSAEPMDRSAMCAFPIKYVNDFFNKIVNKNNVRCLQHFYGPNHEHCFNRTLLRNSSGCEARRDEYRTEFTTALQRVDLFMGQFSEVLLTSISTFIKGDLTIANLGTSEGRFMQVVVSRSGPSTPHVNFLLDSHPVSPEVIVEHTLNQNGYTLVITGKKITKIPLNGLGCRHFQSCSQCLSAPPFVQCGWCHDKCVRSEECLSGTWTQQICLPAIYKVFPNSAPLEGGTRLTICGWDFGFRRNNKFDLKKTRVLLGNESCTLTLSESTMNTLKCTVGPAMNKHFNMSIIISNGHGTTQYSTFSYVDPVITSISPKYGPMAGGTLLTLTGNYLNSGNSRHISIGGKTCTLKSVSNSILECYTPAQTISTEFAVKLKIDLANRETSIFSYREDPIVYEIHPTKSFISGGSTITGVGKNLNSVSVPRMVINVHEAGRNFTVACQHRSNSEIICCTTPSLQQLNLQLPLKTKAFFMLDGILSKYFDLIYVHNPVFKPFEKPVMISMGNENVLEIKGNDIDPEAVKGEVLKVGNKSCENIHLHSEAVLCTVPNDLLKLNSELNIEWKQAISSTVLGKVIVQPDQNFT
As to B1, the binding result is recorded as “binds”.

With B2, the binding result is “binds”. Consider B3, for which the binding result is on record as “binds”. Regarding B4, the binding result is “binds”. Under B5 stands “binds”. Then B6, with “binds”.

Take B7: the binding result was “binds”. Under B8 stands “binds”.
